According to patent US20150191516A1 (ONCOTHERAPY SCIENCE, published 2015):

Tests used:
HLA-DR15 (DRB1*15:02) = biological target: T1, HLA-DR15 (DRB1*15:02) (human); assay: concluded from IFN-gamma ELISPOT with peptide-pulsed L cells expressing single HLA class II molecules and blocking mAbs; no direct binding assay
T1 construct: whole, on cells; MHC class II molecule on transfected L cells (L-DR15); also called L-DR15 (mouse L cells expressing it)
Method: (§1) The immune response of Th cells to APCs pulsed with peptides were assessed by IFN-gamma ELISPOT assays (Human IFN-gamma ELISPOT kit, BD Biosciences) as described previously (Tomita Y, et al. Cancer Sci; 102: 697-705.). Briefly, the frequency of peptide-specific CD4⁺ T cells producing IFN-gamma per 3×10⁴ bulk CD4⁺ T cells upon stimulation with peptide-pulsed PBMCs (3×10⁴ cells/well), or 1×10⁴ bulk CD4⁺ T cells upon stimulation with peptide-pulsed HLA-DR or DP-expressing L-cells (5×10⁴/well) was analyzed. To determine restriction HLA molecules involved in antigen presentation, blocking of antigen-induced IFN-gamma production was investigated by adding anti-HLA-DR mAb (L243, Biolegend), anti-HLA-DP mAb, (B7/21, abcam), anti-human HLA-DQ mAb (SPV-L3, abcam), or anti-HLA class I mAb, (W6/32, abcam). All mAbs were used at a final concentration of 5 micro-g/ml. Cells cultured with HIV-derived peptides were used as negative control. Cells cultured with PMA (100 ng/ml; Sigma-Aldrich) and ionomycin (500 ng/ml; Sigma-Aldrich) were used as positive controls. All assessments of IFN-gamma ELISPOT assays were carried out in duplicate or triplicate, and results corresponded to mean values.

HLA-DR8 (DRB1*08:03) = biological target: T2, HLA-DR8 (DRB1*08:03) (human); assay: as above
T2 construct: whole, on cells; MHC class II molecule on transfected L cells (L-DR8); also called L-DR8 (mouse L cells expressing it)
Method: as §1

KWTEPYCVIAAVKIFPRFFMVAKQ (Synthetic 24-mer, purity >90%) [LY6K (119-142) long peptide]: binds (HLA-DR15 (DRB1*15:02)); binds (HLA-DR8 (DRB1*08:03)).
